Test results taken from patent US5223421A, “Identification of methionine Nα-acetyltransferase” (The General Hospital Corporation, priority 1990, dated 1993).

Target: T1, yeast methionine acetyltransferase (M-N^α AT) (Saccharomyces cerevisiae, UniProt Q06504)
T1 construct: a crude yeast homogenate from the aaa1 mutant strain; endogenous in cells; host or cells: Saccharomyces cerevisiae strain T3A-a (aaa1), crude lysate
T1 sequence (Q06504 1-195): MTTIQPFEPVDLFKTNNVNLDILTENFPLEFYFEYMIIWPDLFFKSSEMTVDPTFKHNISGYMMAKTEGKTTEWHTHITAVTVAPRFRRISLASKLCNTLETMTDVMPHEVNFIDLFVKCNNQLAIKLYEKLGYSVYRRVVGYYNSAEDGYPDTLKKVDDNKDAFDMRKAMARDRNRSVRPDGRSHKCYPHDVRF
T1 sequence (Q12387 2-796 partner limits assumed): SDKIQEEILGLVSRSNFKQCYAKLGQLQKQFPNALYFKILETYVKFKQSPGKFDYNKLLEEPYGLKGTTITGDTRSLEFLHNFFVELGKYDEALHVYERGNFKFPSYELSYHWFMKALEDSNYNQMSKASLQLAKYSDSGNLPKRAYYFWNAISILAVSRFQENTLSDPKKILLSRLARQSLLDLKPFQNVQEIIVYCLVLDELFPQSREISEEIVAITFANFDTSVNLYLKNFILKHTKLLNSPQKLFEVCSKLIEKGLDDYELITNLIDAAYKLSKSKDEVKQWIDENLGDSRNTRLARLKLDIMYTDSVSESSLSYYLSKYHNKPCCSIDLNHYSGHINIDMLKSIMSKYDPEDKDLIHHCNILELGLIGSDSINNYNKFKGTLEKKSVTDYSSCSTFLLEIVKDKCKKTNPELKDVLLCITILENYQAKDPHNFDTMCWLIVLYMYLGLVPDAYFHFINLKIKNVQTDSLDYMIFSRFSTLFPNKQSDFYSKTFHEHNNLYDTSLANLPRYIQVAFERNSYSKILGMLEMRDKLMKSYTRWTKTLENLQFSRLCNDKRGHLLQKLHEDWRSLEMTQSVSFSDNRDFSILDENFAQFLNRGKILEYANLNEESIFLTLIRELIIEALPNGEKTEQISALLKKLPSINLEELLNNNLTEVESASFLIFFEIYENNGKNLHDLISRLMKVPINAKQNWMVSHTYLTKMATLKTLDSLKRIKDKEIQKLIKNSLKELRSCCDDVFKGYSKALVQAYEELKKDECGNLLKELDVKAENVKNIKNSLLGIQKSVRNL
Experiment: Relative activity of yeast methionine acetyltransferase for N^α -acetylation of synthetic peptides (PAI analogues)
Format: biochemical
Design: tested at 50 µM
Settings: Table 5; mean ± SD (N=3-5); normalized to yeast proteinase A inhibitor 3
Description: N^α -acetyltransferase activity was determined as previously described [Lee et al., J. Biol. Chem. 263:14948-14955 (1988)]. Aliquots of the lysate or chromatographic fractions were added to 1.5 ml Eppendorf tubes containing a reaction mixture of 50 mM HEPES, pH 7.4, 150 mM KCl, 1 mM DTT, 25 μM [^3 H] acetyl coenzyme A (0.5 μCi) and 50 μM synthetic peptide with an adjusted final volume of 100 μl. The assay mixture was incubated at 30° C. for 30 min. The reaction was stopped by adding 17 μl of 0.5M acetic acid and chilled in an ice bath. The reaction samples were filtered through SP membrane discs (Cuno) (previously pre-swollen in 0.5M acetic acid), and then washed three times with 1 ml of 0.5M acetic acid on a Millipore 1225 sampling manifold. The partially dried membranes were placed in scintillation cocktail and counted with a Beckman LS 3801 scintillation counter. One unit of activity was defined as the amount of enzyme able to transfer 1 pmol of [^3 H] acetyl group from [^3 H] acetyl coenzyme A to synthetic peptide per min under standard enzyme assay conditions defined above.
Proteinase A inhibitor 3 (PAI) (Tsunasawa et al., Methods Enzymol. 106:165-170 (1984); Wold, F., Trends Biochem Sci. 9:256-267 (1984); Driessen et al., CRC Crit. Rev. Biochem 18:281-325 (1985); Mullen et al., EMBO J. 8:2067-2075 (1989); Lee et al., J. Bacteriol. 171:5795-5802 (1989); Hershko et al., Proc. Natl. Acad. Sci. USA 81:7021-7025 (1984); Bachmair et al., Science 234:179-186 (1986); Arfin et al., Biochemistry 27:7979-7984 (1988); Persson et al., Eur. J. Biochem. 152:523-527 (1985); Huang al., Biochemistry 26:8242-8246 (1987); Lee et al., J. Biol. Chem. 263:14948-14955 (1988); Kamitani et al., J. Biol. Chem. 264:13188-13193 (1989)) is the only known yeast protein which is acetylated at its NH2 -terminal methionine residue (Biedermann et al., Carlsberg Res. Commun. 45:225-235 (1980)). […] The numbers in parentheses refer to the residue numbers, and the letters in parentheses refer to the amino acid sequence Abbreviations are as in FIG. 1. Data are reported as mean activity ±SD (N=3-5) and are normalized to the activity of the homogenate towards yeast proteinase A inhibitor 3. The sequence of this protein is:
Thus, by using PAI, its analogues and other peptides, the structural features of M-N^α AT substrates were studied. […] Only three of nineteen analogues were acetylated, although the efficiency of their acetylation varied from 9-55% (Asp>Glu>Gln). Although it was shown previously that iso-cytochrome c variant proteins (Met-Ile-Arg - - -, Met-Ile-Lys - - -, Met-Met-Asn - - -) can be N^α -acetylated in vivo (Tsunasawa et al., J. Biol. Chem. 260:5382-5391 (1985)), synthetic peptides mimicking the NH2 -terminal 24 amino acid residues of these iso-cytochrome c variants were not acetylated by the yeast M-N^αAT.

MNTDQQKVSEIFQSSKEKLQGDAK (MNTDQQKVSEIFQSSKEKLQGDAK) [Proteinase A Inhibitor 3 (1-24) (Yeast)]
Activity (%): 100 ± 5%
